# Article PMC6827286
# Where a chain is given by its changes, count along the chain named. In names and notes the source's numbering stands.
# T1: colFD-NL
# T1 chain: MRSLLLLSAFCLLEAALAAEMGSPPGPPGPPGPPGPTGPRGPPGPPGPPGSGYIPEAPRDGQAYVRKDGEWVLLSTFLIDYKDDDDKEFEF
# B1: Hsp47-HT, P19324 Y353A (protein)
# chain: AEVKKPLEAAAPGTAEKLSSKATTLAERSTGLAFSLYQAMAKDQAVENILLSPLVVASSLGLVSLGGKATTASQAKAVLSAEKLRDEEVHTGLGELLRSLSNSTARNVTWKLGSRLYGPSSVSFADDFVRSSKQHYNCEHSKINFRDKRSALQSINEWASQTTDGKLPEVTKDVERTDGALLVNAMFFKPHWDEKFHHKMVDNRGFMVTRSYTVGVTMMHRTGLYNYYDDEKEKLQMVEMPLAHKLSSLIILMPHHVEPLERLEKLLTKEQLKAWMGKMQKKAVAISLPKGVVEVTHDLQKHLAGLGLTEAIDKNKADLSRMSGKKDLYLASVFHATAFEWDTEGNPFDQDIAGREELRSPKLFYADHPFIFLVRDNQSGSLLFIGRLVRPKGDKMRDEL
# B2: Hsp47-HT, P19324 Y353L (protein)
# chain: B1 chain with A353L
# B3: Hsp47-HT, P19324 Y353E (protein)
# chain: B1 chain with A353E
# B4: Hsp47-HT, P19324 Y353R (protein)
# chain: B1 chain with A353R
# B5: Hsp47-HT, P19324 E356A (protein)
# chain: B1 chain with A353Y, E356A
# B6: Hsp47-HT, P19324 R355A (protein)
# chain: B1 chain with A353Y, R355A
# B7: recombinant mouse Hsp47 (rmHsp47) WT (natural protein)
# chain: B1 chain with A353Y
# B8: Hsp47-HT, P19324 I352R (protein)
# chain: B1 chain with I352R, A353Y
# B9: Hsp47-HT, P19324 I352L (protein)
# chain: B1 chain with I352L, A353Y
# B10: Hsp47-HT, P19324 I352A (protein)
# chain: B1 chain with I352A, A353Y
# B11: Hsp47-HT, P19324 Q350A (protein)
# chain: B1 chain with Q350A, A353Y
# B12: Hsp47-HT, P19324 I352E (protein)
# chain: B1 chain with I352E, A353Y
# B13: Hsp47-HT (natural protein)
# chain: B1 chain with A353Y
# modifications: HaloTag fluorescent ligand 618 on the HaloTag
# B14: recombinant mouse Hsp47 (rmHsp47) Y353A (natural protein)
# chain: B1 chain
# B15: Hsp47-HT, P19324 I352F (protein)
# chain: B1 chain with I352F, A353Y
# B16: Hsp47-HT, P19324 D351A (protein)
# chain: B1 chain with D351A, A353Y
# B17: recombinant mouse Hsp47 (rmHsp47) I352A (natural protein)
# chain: B1 chain with I352A, A353Y
# B18: Hsp47-HT, P19324 Y353F (protein)
# chain: B1 chain with A353F
# How the values were obtained:
# colFD-NL [1] = molecular target: T1, colFD-NL; assay: BRET; conditions: chain shown with the change; in the ER of HEK293 cells; n = 4; parent: est. 100; read off a plot
# colFD-NL [2] = molecular target: T1, colFD-NL; assay: BRET; conditions: chain shown with the change; in the ER of HEK293 cells; n = 4; parent: est. 100; read off a plot
# [3] = molecular target: Collagen (pig's skin type I-C (Nitta Gelatin Inc.)) (pig); assay: SPR; Biacore T200; collagen amine-coupled to a CM5 chip (∼2,000 response units), rmHsp47 injected; 10 mM HEPES, 0.15 M NaCl, 0.05% surfactant P20, pH 7.4; 25 °C; kobs linearization method (Anabel)
# [4] = molecular target: colFD-NL (bacteriophage T4); assay: FRET or BRET; NanoBRET in the ER of living, transiently transfected HeLa cells; colFD-NL donor, Hsp47-HT with HT ligand 618 acceptor; 37 °C
# [5] = molecular target: colFD-NL (bacteriophage T4); assay: FRET or BRET; NanoBRET in the ER of living, transiently transfected HEK293 cells; colFD-NL (NanoLuc) donor, Hsp47-HT with HT ligand 618 (20-100 nM) acceptor; cells washed, furimazine added, 37 °C; BRET ratio 618/460 nm (mBU); some panels with Col003 and derivatives (2 h) or α,α-dipyridyl; the cell line is not named for every panel
Binder,percent of parent (colFD-NL [1]),percent of parent (colFD-NL [2]),further results
B1,83%,84%,–
B2,82%,–,–
B3,77%,–,–
B4,74%,–,–
B5,–,95%,–
B6,–,96%,–
B7,–,–,Kd [3]: 1.5 µM
B8,81%,–,–
B9,92%,–,–
B10,85%,86%,–
B11,–,100%,–
B12,83%,–,–
B13,–,–,"BRET ratio (donor to acceptor 1:100, HeLa) [4]: 25 mBU; BRET ratio (donor to acceptor 1:50, HEK293) [5]: 40 mBU"
B14,–,–,Kd [3]: 3.6 µM
B15,95%,–,–
B16,–,100%,–
B17,–,–,Kd [3]: 3.3 µM
B18,88%,–,–
